Here are results for 22 molecules from US20220259593A1, “CONTROL OF MAMMALIAN GENE DOSAGE USING CRISPR” (The Regents of the University of California, priority 2019, published 2022).

The labels stand for the following.
B1: cr680 (nucleic acid)
guide: GTTTAAGAGCTAAGCTGGAAACAGCATAGCAAGTTTAAATAACGCTAGTCGGTTATCAACATGAAAATGTGGCTCCGAGTCGGAGCT
modifications: listed as DNA, chemistry not fully specified
B2: cr418 (nucleic acid)
guide: GTTTAAGAGCTAAGCTGGAAACAGCATAGCAAGGTTAAATAAGGCTAGTCCGTTATCAACATGAAAATGTGGCACCGAGTCGGTGCT
modifications: listed as DNA, chemistry not fully specified
B3: cr305 (nucleic acid)
guide: GTTTAAGAGCTAAGCTGGAAACAGCATAGCAAGGTTAAATAAGGCTAGTCCGTTATCAACTTGAAAAAGTGGCCCCGAGTCGGGGCT
modifications: listed as DNA, chemistry not fully specified
B4: cr507 (nucleic acid)
guide: GTTTAAGAGCTAAGCTGGAAACAGCATAGCAAGTTTAAATAATGCTAGTCAGTTATCAACTTGAAAAAGTGGCACAGAGTCTGTGCT
modifications: listed as DNA, chemistry not fully specified
B5: cr186 (nucleic acid)
guide: GTTTAAGAGCTAAGCTGGAAACAGCATAGCAAGGTTAAATAAGGCTAGTCCGTTATCAAGTTGAAAAACTGGCACCGAGTCGGTGCT
modifications: listed as DNA, chemistry not fully specified
B6: cr496 (nucleic acid)
guide: GTTTAAGAGCTAAGCTGGAAACAGCATAACAAGTTTAAATAAGGCTAGTCCTTTATCAACTTGAAAAAGTGGCACCGAGACGGTGCT
modifications: listed as DNA, chemistry not fully specified
B7: cr389 (nucleic acid)
guide: GTTTAAGAGCTAAGCTGGAAACAGCATAGCAAGTTTAAATAAAACTAGTTTGTTATCAACTTGAAAAAGTGGCACCGAGTCGGTGCT
modifications: listed as DNA, chemistry not fully specified
B8: cr043 (nucleic acid)
guide: GGTTTAGAGCTAAGCTGGAAACAGCATAGCAAGTTTAAATAAGGCTAGTCCGTTATCAACTTGAAAAAGTGGCACCGAGTCGGTGCT
modifications: listed as DNA, chemistry not fully specified
B9: cr030 (nucleic acid)
guide: GCTTTAGAGCTAAGCTGGAAACAGCATAGCAAGTTTAAATAAGGCTAGTCCGTTATCAACTTGAAAAAGTGGCACCGAGTCGGTGCT
modifications: listed as DNA, chemistry not fully specified
B10: cr922 (nucleic acid)
guide: GTTTAAGAGCTAAGCTGGAAACAGCATAGCAAGGTTAAATAAGGCTAGTCCGTTATCAACTTGAAAAAGTGGCAACGAGTCGTTGCT
modifications: listed as DNA, chemistry not fully specified
B11: cr547 (nucleic acid)
guide: GTTTAAGAGCTAAGCTGGAAACAGCATAGCAAGTTTAAATGAGGCTAGTCCGTTATCAACTTGAAAAAGTGGCACCGAATCGGTGCT
modifications: listed as DNA, chemistry not fully specified
B12: cr946 (nucleic acid)
guide: GTTTAAGAGCTAAGCTGGAAACAGCATAGCAAGTTTAAATAACGCTAGTCGGTTATCAACTGGAAACAGTGGCGCCGAGTCGGCGCT
modifications: listed as DNA, chemistry not fully specified
B13: cr700 (nucleic acid)
guide: GTTTAAGAGCTAAGCTGGAAACAGCATAGCAAGTTTAAATTAGGCTAGTCCGTTATCAACTTGAAAAAGTGGCACCGCGTCGGTGCT
modifications: listed as DNA, chemistry not fully specified
B14: cr961 (nucleic acid)
guide: GTTTAAGAGCTAAGCTGGAAACAGCATAGCAAGTTTAAATAAGGCTAGTCCGTTATCAACTCGAAAGAGTGCAACCGAGTCGGTTGT
modifications: listed as DNA, chemistry not fully specified
B15: cr542 (nucleic acid)
guide: GTTTAAGAGCTAAGCTGGAAACAGCATAGCAAGATTAAATAAGGCTAGTCCGTCATCGACTTGAAAAAGTGGCACCGAGTCGGTGCT
modifications: listed as DNA, chemistry not fully specified
B16: cr633 (nucleic acid)
guide: GTTTAAGAGCTAAGCTGGAAACAGCATGGCAATTTTAAATACGGCTAGTCCGTTATCAACTTGAAAAAGTGGCACCGAGTCGGTGCT
modifications: listed as DNA, chemistry not fully specified
B17: cr950 (nucleic acid)
guide: GTTTAAGAGCTAAGCTGGAAACAGCATAGCTAGGTTAAATAAGGCTAGTCCGTGATCAACTTGAAAAAGTGGCACCGAGTCGGTGCT
modifications: listed as DNA, chemistry not fully specified
B18: cr951 (nucleic acid)
guide: GTTTAAGAGCTAAGCTGGAAACAGCATAGCAAGTTTAAATAAGGCTAGTCCGTTATCAACTTGAGAAAGTGGCTCCGAGTCGGAGCT
modifications: listed as DNA, chemistry not fully specified
B19: cr080 (nucleic acid)
guide: TTTTTAGAGCTAAGCTGGAAACAGCATAGCAAGTTTAAATAAGGCTAGTCCGTTATCAACTTGAAAAAGTGGCACCGAGTCGGTGCT
modifications: listed as DNA, chemistry not fully specified
B20: cr935 (nucleic acid)
guide: GTTTAAGAGCTAAGCTGGAAACAGCATAGCAAGTTTAAATGAGGCTAGTCCGTTATCAACTTGACAAAGTGGCACCGAGTCGGTGCT
modifications: listed as DNA, chemistry not fully specified
B21: cr386 (nucleic acid)
guide: GTTTAAGAGCTAAGCTGGAAACAGCATAGCAAGGTTAAATAAGGCTAGTCCGTTATCAACCTGAAAAGGTGGCACCGAGTCGGTGCT
modifications: listed as DNA, chemistry not fully specified
B22: cr492 (nucleic acid)
guide: GTTTAAGAGCTAAGCTGGAAACAGCATAGCAAGTTTAAATAAGGCTAGTCCGTTCTCAACTTGAAAAAGTGGCACCGAGTCGGTGCT
modifications: listed as DNA, chemistry not fully specified

In one data set the test system is K562 CRISPRi cells. The data set is described as follows: Constant region variant library pooled growth screen, K562. Particulars: sgRNA constant region variant; activity relative to unmodified constant region cr995; mean CRISPRi activity. The class given is cell-based, human. Summed up:
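Pooled library transduced into K562 CRISPRi cells in duplicate, puromycin-selected, grown at >2000× coverage and sampled after 4 to 8 days. Phenotypes per targeting sequence:constant region pair were normalized to the unmodified-scaffold pairing to give relative activity.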
Take B1: the Mean relative activity was found to be 0.02086. In the case of B2, the Mean relative activity was 0.02069. The molecule B3 gave a Mean relative activity of 0.02073. B4: the Mean relative activity was found to be 0.01954. For B5, the Mean relative activity was 0.0199. In turn, B6 registered a Mean relative activity of 0.02078. The molecule B7 had a Mean relative activity of 0.01944.

The same data set, now with this note: sgRNA constant region variants; activity relative to the original, un-modified constant region cr995.
In turn, B8 displayed a Mean relative activity of 0.0245. With B9, the Mean relative activity is on record as 0.02089.

With B10, the Mean relative activity amounted to 0.02327.

Take B11: the Mean relative activity was determined as 0.02194.

In turn, B12 had a Mean relative activity of 0.0237. In turn, B13 gave a Mean relative activity of 0.02103. Same read-out and setting: the result for B14 reads 1.088; that for B15, 0.02115; that for B16, 0.02445. The molecule B17 gave a Mean relative activity of 0.0224. In the case of B18, the Mean relative activity is reported as 1.034. Take B19: the Mean relative activity was 0.02323. As for B20, the Mean relative activity is reported as 0.02413.

For the molecule B21, the Mean relative activity is on record as 0.02428.

Molecule B22 had a Mean relative activity of 1.034.
